The target of one assay is Nb14-Fc (camel). Nature of the assay: SPR. Background: SPR reads the build-up and loss of mass on a sensor chip optically.
For a further assay, the target named is Nb32-Fc (camel). Nature of the assay: SPR.

The term Kd denotes the equilibrium constant for the complex coming apart.

B1: HSV-2 gD (aa1-275) with C-terminal His tag (domain or fragment)
chain: KYALADPSLKMADPNRFRGKNLPVLDQLTDPPGVKRVYHIQPSLEDPFQPPSIPITVYYAVLERACRSVLLHAPSEAPQIVRGASDEARKHTYNLTIAWYRMGDNCAIPITVMEYTECPYNKSLGVCPIRTQPRWSYYDSFSAVSEDNLGFLMHAPAFETAGTYLRLVKINDWTEITQFILEHRARASCKYALPLRIPPAACLTSKAYQQGVTVDSIGMLPRFIPENQRTVALYSLKIAGWHGPKPPYTSTLLPPELSDTTNATQPELVPEDPED
As to B1, the Kd amounted to 0.0831 nM in the assay with Nb14-Fc and 0.0434 nM with Nb32-Fc.

B2: HSV-1 gD (aa1-275) with C-terminal His tag (domain or fragment)
chain: KYALADASLKMADPNRFRGKDLPVLDQLTDPPGVRRVYHIQAGLPDPFQPPSLPITVYYAVLERACRSVLLNAPSEAPQIVRGASEDVRKQPYNLTIAWFRMGGNCAIPITVMEYTECSYNKSLGACPIRTQPRWNYYDSFSAVSEDNLGFLMHAPAFETAGTYLRLVKINDWTEITQFILEHRAKGSCKYALPLRIPPSACLSPQAYQQGVTVDSIGMLPRFIPENQRTVAVYSLKIAGWHGPKAPYTSTLLPPELSETPNATQPELAPEDPED
With B2, the equilibrium dissociation constant (Kd) stood at 1.14 nM in the assay with Nb14-Fc and 0.0367 nM with Nb32-Fc.

(Values after PMC12055985 (Nature Communications, 2025).)
